PMC7116892 (Science (New York, N.Y.), 2021)
Values belong to the binder of their own block, whether it stands above or below them.

Assays:
[1] = biological target: T1, Dyh5 (γ-HC), ODA heavy chain (Tetrahymena thermophila, UniProt I7M6H4 1-4168); assay: cryo-EM structure
[2] = biological target: T2, Dyh3 (α-HC), ODA heavy chain (Tetrahymena thermophila, UniProt Q22A67 1-4620); assay: cryo-EM structure
[3] = biological target: T1, Dyh5 (γ-HC), ODA heavy chain; assay: cross-linking
[4] = biological target: T2, Dyh3 (α-HC), ODA heavy chain; assay: cross-linking

- binding result [1]: binds
- binding result [2]: binds
B1: Shulin (Q22YU3), recombinant full-length, C-terminal 2xStrep (natural protein, Tetrahymena thermophila, UniProt Q22YU3 1-1200, looked up)
chain: MFNFFSSANINQNIPKYSVNDFVFRLKKIEKIVVKEGLDGFLLINGVDSRENTEYVKLTNWLFLGNSGLEIEENEYLNQIYSDMIVLIKKGTTHIFIDPEALNSLQTLIYSIPNVDVFCPTEKQYEDKDEMELLKMAFFLRVMKPTKKVGILLGQKDKGKINSIEKWPLIQSYGLEELGVGFFSMNHEVVDLTLRLNAVYKNYDKFFVSKLIYVVAKRLTGHFNSAAGQLGDMKMHKRNLATESQLTEIFRDTYEIEEISKWVQIRGVNAALPKPRVLFGKNTSADCSKEPSVAPLKDLKYSETFHSFHATFETFDLRTCLRAARTYFLAKGVKEERNLITLNDDEGVPQGYELNIDENQQYKDQDFLANLYLSIIIGFNEVMQLITKDYKNMTEEFIQDYIFQKVSKVYAGFQIPESEITLDKIQIILKAYNSFGEEVKIDFKDTISFKLTPYFFMVRIEQKNIKSQILNNTVLGSLVFAESFILQEGCYLLLTKEIPYFDLWNCQNDYSEKIEKMKKRILWEPLGKQISDELPKNRIFVQTGRKSNYGFDIPIMQASYYMHELGLRIETQRLGWFILFFKEMKEIQITQKMNHTWLIFKVDSNITFNSISKDTIALEFTGDALEQSFFKIKNYFEENQIKYEYQVDIPAIFQESQIAKKQILNQQSQGQKLITMNSIQNEQFFISYIESKQLMILNQMKDLKLSAYKNLYEQMQISQAITPVENHIGVILVNGSYCSGKRKFAENLIRFGSDNNLRLHLYKFDLNEMSELTEKSYLSGLLKFASEKKIQNTDVIVASVPHFINTKILIDYFSKSEKISNAFYIRTIATKININNIYSNFNKNPVNNVFTYGVEGYSQFLLLDTYNNYDADVNALNKTLSGVLPGAKIYKIMNNILNPALAKDILTSITFISEQNNLNRLKYSVQYDLLTSNGPSSVVFIPFKLPILREKIRDLIYKKILQNGNQTLVDTIEAEQKIAEFKELNKNSKDPLMIEIIKLKEKIEIQNAQTSDQAIKIDYVKGILRYDSKLKEGLEEITITPNYFIERTVKGVDAKEFTEELNGVSFKNVKYTGITNSIINDMGFVFAGKNLNKEKLLELLYKLVKPLNKQKLRQRKDLTEEEIVDIQFRNRGEGLENGEFYDGQFWRNIQGLILPHHPKKDEFIEEYLKQEEVRINQINEQLQQEWETWKQVYDKIHLDK

- binding result [3]: binds
- binding result [4]: binds
B2: Q22MS1, recombinant, C-terminal 2xStrep (natural protein, Tetrahymena thermophila, UniProt Q22MS1 1-1892, looked up)
chain: MFQSYLQDIEKENNSSIYNAQAQQNSSTQQSIWDDYIDRQLEHLVVEYQFDFDKIAQRLAGVIGDKQQQKVNFDTCRQRWKQLHLRRYEDKDKDRLDRVSKSVMKMEDPNNALKVQELVEKLPKARQNKDFLKISDEEKLQAFYLNDKGEKIQPTTFNVLKDSVMGIKDKTERERVFKKQQEEFFKSLEKLAGEQDEDMFTKPLIFRAKFTEPTNFNFIVEREELTREQAQRIMSQKVQIKGAGLVPPEPEMGIKMDNYVSMFARPDEEEEELKKKDQEKEVQVNQQIMQDQQETKEEQERDQEELKKQMELTEEEKKKQQEQEEEKKKINVDLYLAERGLKSIDEALNSLEKMRSKVKVNNYFEEAQTEDKKLKEQKEKNQQKVDNEDQIRQEIIKQGLEQLKQKEQGDQLVQFHENQIKKDIKELNEIIGDNKSKNVKNQTQQPNKAVEEEEEIILEKKNDQSKKVPTKKGIFSQFAEEEDSGSEDEVGNDEEELDDELYLQAQRIGLKSDAEIDLFITKKKEERKANMLNKKKVQFSEFSEQKQISEDTDELLAKQEKQIKQKQQFLEKLKKKSENEAGENDESNQEGSQNWRDLEFSAGMAFKRQLEEEKMQRMIKEQFEEEQRRKADQERIRQIQEEYHLKKLDIETKIKLREPLNLEKVNQEKWKEYIEAQQKRREEIEKEFEEKQRIQTEQEEKEQKENLIKEKIHFFEQKIKNFPSNDPFKCFFDDQVSYLSQISSLPSKITTKIADLKKYDISRDGITSRYQILIFPYLDKCQEFVFQFLSFFLRNSFFRQPPSEKELGEIVSENPLDEIPCQRLSSKGFPFCLVSFYIGSHTSEINDEQDEQYLSNYLNDAIKFDKLINDDKLQKSIYLFFDTYIGRGQDTLSKQLDLALTEFLSDGCLDQAIRKYGEKVINRDMKLSDFKTAYYKNMEIAKKLFNESNTFHSICPTKTSYHQTNQLAIHQNKKKQLLPTSPSNSPSIISHSHGNKWETSVIIIRNYSEIQNPSALRQQQNRGVDFSNASDLMQQDVTTEQYSNLSESLSNLVPSHTEISQRQKQQMTDVIHYTLNKLQEKGIQILGMKSFFFDQKTVQEFKSYVENINFNTNTNQPIVVISVAGFDLHSKLKKMVGSEDAQLAKRVEPNSLNALFSTGRDDSIIIPYNKALSRRLISYFFCGRLEKIQTVQDIQVIEGLTNKKQLYLTKPKPFNPVFLLNSQPIREHICLLSSKFLPQQFCEVIRKIQARGFELLNIRVIDSSNLSAILKKDEDFSAFIENENLQELNSGENDYERINLVLHIQGANISSLRNTLLNKIIDYNPFLHPSKREIFYYTKDDLSLTLLKDIFFNRHIKSNFTPSERFPLFIALWPFLNDYEEKEGLTASQAVPLGNDLKIMSSYGLELLSVSKIFKSQIQQKLNTSIEEETEHVDLKSILHQLIQNNIQINSITKKKPEFSTFCSRLGEEILSQDFYLAVFRYQGDRQSKHLDKLFTEVPFVHSNKTINESTVVTHGAKQTPHTQAKPLPTEFLTLFFLDSSAQQVSNFTKLLGIGAFDDWSFKGSFIFDLPSSGYTGEIETLIILSEDVVKTLLLVGLVKIIENNQFKIKSFFKHRCSREFSEVIQENLLQAFSGYESQMHDQGTKLQKIKASLDNLMTRLQGESMYFLVLSKENGIFNGKKILFELAEKYSVFKKETINVESSTEYMLDKGMYCSLNYKCQQREFKELQFMSQQILSMAHENNQEQQDVDKMYDNQLVMVIRIDQQIQLYEVFRKLQSDLKFKIIHFLVMRQFEWTDIQYISSHFTPKFEAQHIQKYFEINNDGIYCIVHLDSKNSVSLSDAFGTLRLNEKGEFKQVIRSSLFGKQEVFFIYTNNPQHVKKLSAYAFKSSE
